This data set deals with the molecule itself. Description: crystal structure; crystals from 10–18% PEG 4000, 50–200 mM sodium acetate buffer pH 4.6, 15 mM nicotinic acid (where present), 15% ethylene glycol; molecular replacement with PDB 1ICR; two subunits in the asymmetric unit.

Where a chain is given by its changes, count along the chain named. In names and notes the source's numbering stands.

B1: T41L/N71S NfsB (enzyme, Escherichia coli)
chain: MDIISVALKRHSTKAFDASKKLTPEQAEQIKTLLQYSPSSLNSQPWHFIVASTEEGKARVAKSAAGNYVFSERKMLDASHVVVFCAKTAMDDVWLKLVVDQEDADGRFATPEAKAANDKGRKFFADMHRKDLHDDAEWMAKQVYLNVGNFLLGVAALGLDAVPIEGFDAAILDAEFGLKEKGYTSLVVVPVGHHSVEDFNATLPKSRLPQNITLTEV
notes: Escherichia coli NfsB nitroreductase, 24 kDa subunit, expressed as the native protein; Expressed 'as the native proteins', so no tag is stated; Homodimer with one FMN per active site; also called double mutant; T41L/N71S mutant; source: E. coli BL21 (λDE3), pET11c, purified (Phenyl Sepharose, Q-Sepharose)
For B1, the binding result is “binds”.

B2: T41Q/N71S/F124T/M127V NfsB (enzyme, Escherichia coli)
chain: B1 chain with L41Q, F124T, M127V
notes: Escherichia coli NfsB nitroreductase, 24 kDa subunit; also called quadruple mutant; T41Q/N71S/F124T/M127V mutant; source: initially purified from a UT5600 E. coli lysogen, later also recloned into pET11c; purified (Phenyl Sepharose, Q-Sepharose)
Consider B2, for which the binding result was “binds”.

B3: T41Q/N71S/F124T NfsB (enzyme, Escherichia coli)
chain: B1 chain with L41Q, F124T
notes: Escherichia coli NfsB nitroreductase, 24 kDa subunit, expressed as the native protein; Expressed 'as the native proteins', so no tag is stated; Homodimer with one FMN per active site; also called triple mutant; T41Q/N71S/F124T mutant; source: E. coli BL21 (λDE3), pET11c, purified (Phenyl Sepharose, Q-Sepharose)
Turning to B3, the binding result was “binds”.

These data come from PMC10051150, “Structure and Dynamics of Three Escherichia coli NfsB Nitro-Reductase Mutants Selected for Enhanced Activity with the Cancer Prodrug CB1954” (International Journal of Molecular Sciences, 2023).
